Measured values published in article PMC12199146, “Unique conformational dynamics and protein recognition of A-to-I hyper-edited dsRNA”.

B1: A-RNA (non-edited 20-mer dsRNA) (dsRNA)
RNA 1: ACUGGACAAAUACUCCGAGG
RNA 2: CCUCGGAGUAUUUGUCCAGU

Tests used:
[1] = target: T1, Endonuclease V (EcEndoV), wild-type (Escherichia coli, UniProt P68739 1-223); assay: EMSA; EMSA: 25 mM sodium phosphate pH 6.5, 50-300 mM NaCl (500 mM in Fig. S17E), 1 mM DTT, 5 mM MgCl2, 30 min on ice, 2 pmol RNA in 10 ul, 12% native gel in TBE at room temperature; NMR: 25 mM sodium phosphate pH 6.5, 150 mM NaCl, 5 mM MgCl2, 1 mM DTT, 5% D2O, 50 uM RNA, 288 K; settings: protein: recombinant; tags: N-terminal His-tag removed with TEV protease; single strand
T1 sequence: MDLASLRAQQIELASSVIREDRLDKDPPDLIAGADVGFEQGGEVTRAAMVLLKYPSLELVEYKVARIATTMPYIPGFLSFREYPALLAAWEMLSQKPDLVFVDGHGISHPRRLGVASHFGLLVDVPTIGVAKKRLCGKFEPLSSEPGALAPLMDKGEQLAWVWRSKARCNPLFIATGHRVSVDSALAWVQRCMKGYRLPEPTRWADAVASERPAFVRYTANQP

[2] = target: T1, Endonuclease V (EcEndoV), wild-type; assay: NMR imino line broadening; 5 mM Mg2+, 150 mM NaCl, 288 K, 1:1; backbone interaction, non-specific; EMSA: 25 mM sodium phosphate pH 6.5, 50-300 mM NaCl (500 mM in Fig. S17E), 1 mM DTT, 5 mM MgCl2, 30 min on ice, 2 pmol RNA in 10 ul, 12% native gel in TBE at room temperature; NMR: 25 mM sodium phosphate pH 6.5, 150 mM NaCl, 5 mM MgCl2, 1 mM DTT, 5% D2O, 50 uM RNA, 288 K; settings: protein: recombinant; tags: N-terminal His-tag removed with TEV protease; 20-mer duplex, residues 1-40

Binder | binding result [1] | binding result [2]
CCUCGGAGUAUUUGUCCAGU (ssRNA) [ssRNA substrate(s) without inosine] | no binding | –
B1 | – | binds
